Measured values published in PMC3175489.

Experiments:
[1] = biological target: T1, SOX2 (human, UniProt P48431 1-317); test: competition
[2] = biological target: T1, SOX2; test: Ni-NTA filter microplate fluorescent DNA binding
[3] = biological target: NANOG (human, UniProt Q9H9S0 1-305); test: Ni-NTA filter microplate fluorescent DNA binding
Sequence of NANOG (Q9H9S0 whole entry): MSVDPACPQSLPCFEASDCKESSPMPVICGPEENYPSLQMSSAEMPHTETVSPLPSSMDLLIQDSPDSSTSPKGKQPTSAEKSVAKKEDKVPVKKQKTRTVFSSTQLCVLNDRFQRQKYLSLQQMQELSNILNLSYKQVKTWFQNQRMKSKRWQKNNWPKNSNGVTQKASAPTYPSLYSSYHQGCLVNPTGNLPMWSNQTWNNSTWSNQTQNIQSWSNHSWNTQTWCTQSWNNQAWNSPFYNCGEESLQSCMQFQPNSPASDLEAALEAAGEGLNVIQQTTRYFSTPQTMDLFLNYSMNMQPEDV

T1 sequence (P48431 whole entry): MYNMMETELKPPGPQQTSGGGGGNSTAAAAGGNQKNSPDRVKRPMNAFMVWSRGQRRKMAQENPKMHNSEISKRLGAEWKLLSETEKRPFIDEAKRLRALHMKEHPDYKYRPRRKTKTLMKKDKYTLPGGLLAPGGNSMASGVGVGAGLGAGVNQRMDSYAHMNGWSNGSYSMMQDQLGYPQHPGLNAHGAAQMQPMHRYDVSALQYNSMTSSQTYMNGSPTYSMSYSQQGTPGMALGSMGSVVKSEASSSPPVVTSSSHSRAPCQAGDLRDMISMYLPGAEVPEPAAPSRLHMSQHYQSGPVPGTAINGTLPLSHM

B1: nonsense probe (dsDNA)
DNA 1: GCCCGATTACTCTGTCCT
DNA 2: AGGACAGAGTAATCGGGC
[1]
  binding result: no binding

B2: SOX2 cognate probe (CR4 POU5F1) (dsDNA)
DNA 1: GCAGAGGACAAAGGTGCCGTG
DNA 2: CACGGCACCTTTGTCCTCTGC
[2]
  Kd: 54.2 ± 9 nM

B3: NANOG cognate probe (Tcf3 enhancer) (dsDNA)
DNA 1: ACCTGTTAATGGGAGCGC
DNA 2: GCGCTCCCATTAACAGGT
[3]
  Kd: 44 ± 6 nM
